Measured values reported in patent publication US20200173960A1.
pKd: −log10 of the molar value. Each block holds one substance with its values, some of them ahead of it.

What was measured:
bevacizumab [1] = assay: cell-based or functional assay
bevacizumab [2] = assay: Bevacizumab PK ELISA (anti-idiotype capture) of bevacizumab 50 ug/mL pre-bound with ADA; bevacizumab:ADA 10:1
bevacizumab [3] = assay: Bevacizumab PK ELISA (anti-idiotype capture) of bevacizumab 0.5 ug/mL pre-bound with ADA; bevacizumab:ADA 5:1
bevacizumab [4] = assay: Bevacizumab PK ELISA (anti-idiotype capture) of bevacizumab 0.5 ug/mL pre-bound with ADA; bevacizumab:ADA 1:2
bevacizumab [5] = assay: Bevacizumab PK ELISA (anti-idiotype capture) of bevacizumab 0.5 ug/mL pre-bound with ADA; bevacizumab:ADA 1:100
bevacizumab [6] = assay: Bevacizumab PK ELISA (anti-idiotype capture) of bevacizumab 0.5 ug/mL pre-bound with ADA; bevacizumab:ADA 1:5
bevacizumab [7] = assay: Bevacizumab PK ELISA (anti-idiotype capture) of bevacizumab 0.5 ug/mL pre-bound with ADA; bevacizumab:ADA 1:10
bevacizumab [8] = assay: Bevacizumab PK ELISA (anti-idiotype capture) of bevacizumab 0.5 ug/mL pre-bound with ADA; bevacizumab:ADA 1:1
bevacizumab [9] = assay: Bevacizumab PK ELISA (anti-idiotype capture) of bevacizumab 50 ug/mL pre-bound with ADA; bevacizumab:ADA 100:1
bevacizumab [10] = assay: Bevacizumab PK ELISA (anti-idiotype capture) of bevacizumab 50 ug/mL pre-bound with ADA; bevacizumab:ADA 5:1
bevacizumab [11] = assay: Bevacizumab PK ELISA (anti-idiotype capture) of bevacizumab 0.5 ug/mL pre-bound with ADA; bevacizumab:ADA 1:50
bevacizumab [12] = assay: Bevacizumab PK ELISA (anti-idiotype capture) of bevacizumab 0.5 ug/mL pre-bound with ADA; bevacizumab:ADA 10:1
bevacizumab [13] = assay: Bevacizumab PK ELISA (anti-idiotype capture) of bevacizumab 50 ug/mL pre-bound with ADA; bevacizumab:ADA 1:1
trastuzumab [14] = assay: cell-based or functional assay
trastuzumab [15] = assay: ELISA Kit B (HER2 capture, anti-human IgG Fc detection) of trastuzumab 0.5 ug/mL pre-bound with ADA; trastuzumab:ADA 10:1
trastuzumab [16] = assay: ELISA Kit A (anti-idiotype capture) of trastuzumab 0.5 ug/mL pre-bound with ADA; trastuzumab:ADA 1:50
trastuzumab [17] = assay: ELISA Kit B (HER2 capture, anti-human IgG Fc detection) of trastuzumab 0.5 ug/mL pre-bound with ADA; trastuzumab:ADA 1:100
trastuzumab [18] = assay: method not stated; affinity listed for the purchased ADA
trastuzumab [19] = assay: ELISA Kit B (HER2 capture, anti-human IgG Fc detection) of trastuzumab 0.5 ug/mL pre-bound with ADA; trastuzumab:ADA 1:10
trastuzumab [20] = assay: ELISA Kit A (anti-idiotype capture) of trastuzumab 50 ug/mL pre-bound with ADA; trastuzumab:ADA 10:1
trastuzumab [21] = assay: ELISA Kit A (anti-idiotype capture) of trastuzumab 0.5 ug/mL pre-bound with ADA; trastuzumab:ADA 1:5
trastuzumab [22] = assay: ELISA Kit A (anti-idiotype capture) of trastuzumab 0.5 ug/mL pre-bound with ADA; trastuzumab:ADA 1:1
trastuzumab [23] = assay: ELISA Kit A (anti-idiotype capture) of trastuzumab 0.5 ug/mL pre-bound with ADA; trastuzumab:ADA 1:2
trastuzumab [24] = assay: ELISA Kit B (HER2 capture, anti-human IgG Fc detection) of trastuzumab 0.5 ug/mL pre-bound with ADA; trastuzumab:ADA 1:1
trastuzumab [25] = assay: ELISA Kit A (anti-idiotype capture) of trastuzumab 50 ug/mL pre-bound with ADA; trastuzumab:ADA 5:1
trastuzumab [26] = assay: ELISA Kit A (anti-idiotype capture) of trastuzumab 50 ug/mL pre-bound with ADA; trastuzumab:ADA 100:1
trastuzumab [27] = assay: ELISA Kit A (anti-idiotype capture) of trastuzumab 0.5 ug/mL pre-bound with ADA; trastuzumab:ADA 5:1
trastuzumab [28] = assay: ELISA Kit A (anti-idiotype capture) of trastuzumab 50 ug/mL pre-bound with ADA; trastuzumab:ADA 1:1
trastuzumab [29] = assay: ELISA Kit A (anti-idiotype capture) of trastuzumab 0.5 ug/mL pre-bound with ADA; trastuzumab:ADA 10:1
trastuzumab [30] = assay: ELISA Kit A (anti-idiotype capture) of trastuzumab 0.5 ug/mL pre-bound with ADA; trastuzumab:ADA 1:10
trastuzumab [31] = assay: ELISA Kit A (anti-idiotype capture) of trastuzumab 0.5 ug/mL pre-bound with ADA; trastuzumab:ADA 1:100
bevacizumab [32] = assay: method not stated; affinity listed for the purchased ADA

Accuracy (%) nSMOL; bevacizumab 0.5 ug/mL; bevacizumab:ADA 1:1 (bevacizumab [1]): 98.2%
Accuracy (%) nSMOL; bevacizumab 0.5 ug/mL; bevacizumab:ADA 1:2 (bevacizumab [1]): 110%
Accuracy (%) nSMOL; bevacizumab 0.5 ug/mL; bevacizumab:ADA 1:5 (bevacizumab [1]): 111%
Accuracy (%) nSMOL; bevacizumab 0.5 ug/mL; bevacizumab:ADA 1:10 (bevacizumab [1]): 110%
Accuracy (%) nSMOL; bevacizumab 0.5 ug/mL; bevacizumab:ADA 1:50 (bevacizumab [1]): 110%
Accuracy (%) nSMOL; bevacizumab 0.5 ug/mL; bevacizumab:ADA 1:100 (bevacizumab [1]): 104%
Accuracy (%) nSMOL; bevacizumab 0.5 ug/mL; bevacizumab:ADA 5:1 (bevacizumab [1]): 98%
Accuracy (%) nSMOL; bevacizumab 0.5 ug/mL; bevacizumab:ADA 10:1 (bevacizumab [1]): 91.3%
Accuracy (%) nSMOL; bevacizumab 50 ug/mL; bevacizumab:ADA 1:1 (bevacizumab [1]): 102%
Accuracy (%) nSMOL; bevacizumab 50 ug/mL; bevacizumab:ADA 5:1 (bevacizumab [1]): 97.3%
Accuracy (%) nSMOL; bevacizumab 50 ug/mL; bevacizumab:ADA 10:1 (bevacizumab [1]): 100%
Accuracy (%) nSMOL; bevacizumab 50 ug/mL; bevacizumab:ADA 100:1 (bevacizumab [1]): 101%
Accuracy (%) nSMOL; bevacizumab first immobilized on Protein A; bevacizumab:ADA 1:1 (bevacizumab [1]): 106%
Accuracy (%) nSMOL; bevacizumab first immobilized on Protein A; bevacizumab:ADA 5:1 (bevacizumab [1]): 106%
Accuracy (%) nSMOL; bevacizumab first immobilized on Protein A; bevacizumab:ADA 10:1 (bevacizumab [1]): 104%
Accuracy (%) nSMOL; bevacizumab first immobilized on Protein A; bevacizumab:ADA 100:1 (bevacizumab [1]): 109%
Accuracy (%) ELISA (bevacizumab [2]): 68.5%
Accuracy (%) ELISA (bevacizumab [3]): 14.2%
Accuracy (%) ELISA (bevacizumab [4]): 3.2%
Accuracy (%) ELISA (bevacizumab [5]): 0%
Accuracy (%) ELISA (bevacizumab [6]): 2.3%
Accuracy (%) ELISA (bevacizumab [7]): 2.4%
Accuracy (%) ELISA (bevacizumab [8]): 6.9%
Accuracy (%) ELISA (bevacizumab [9]): 102%
Accuracy (%) ELISA (bevacizumab [10]): 65.5%
Accuracy (%) ELISA (bevacizumab [11]): 0.1%
Accuracy (%) ELISA (bevacizumab [12]): 44.2%
Accuracy (%) ELISA (bevacizumab [13]): 5.72%
Substance: MAB11128 (clone2C8) (antibody)

Accuracy (%) nSMOL; trastuzumab 0.5 ug/mL; trastuzumab:ADA 1:1 (trastuzumab [14]): 99.9%
Accuracy (%) nSMOL; trastuzumab 0.5 ug/mL; trastuzumab:ADA 1:2 (trastuzumab [14]): 93.4%
Accuracy (%) nSMOL; trastuzumab 0.5 ug/mL; trastuzumab:ADA 1:5 (trastuzumab [14]): 101%
Accuracy (%) nSMOL; trastuzumab 0.5 ug/mL; trastuzumab:ADA 1:10 (trastuzumab [14]): 89.1%
Accuracy (%) nSMOL; trastuzumab 0.5 ug/mL; trastuzumab:ADA 1:50 (trastuzumab [14]): 86.6%
Accuracy (%) nSMOL; trastuzumab 0.5 ug/mL; trastuzumab:ADA 1:100 (trastuzumab [14]): 88.7%
Accuracy (%) nSMOL; trastuzumab 0.5 ug/mL; trastuzumab:ADA 5:1 (trastuzumab [14]): 93.3%
Accuracy (%) nSMOL; trastuzumab 0.5 ug/mL; trastuzumab:ADA 10:1 (trastuzumab [14]): 106%
Accuracy (%) nSMOL; trastuzumab 50 ug/mL; trastuzumab:ADA 1:1 (trastuzumab [14]): 94.8%
Accuracy (%) nSMOL; trastuzumab 50 ug/mL; trastuzumab:ADA 5:1 (trastuzumab [14]): 96.7%
Accuracy (%) nSMOL; trastuzumab 50 ug/mL; trastuzumab:ADA 10:1 (trastuzumab [14]): 104%
Accuracy (%) nSMOL; trastuzumab 50 ug/mL; trastuzumab:ADA 100:1 (trastuzumab [14]): 94.7%
Accuracy (%) nSMOL; trastuzumab first immobilized on Protein A; trastuzumab:ADA 1:1 (trastuzumab [14]): 102%
Accuracy (%) nSMOL; trastuzumab first immobilized on Protein A; trastuzumab:ADA 5:1 (trastuzumab [14]): 98.3%
Accuracy (%) nSMOL; trastuzumab first immobilized on Protein A; trastuzumab:ADA 10:1 (trastuzumab [14]): 102%
Accuracy (%) nSMOL; trastuzumab first immobilized on Protein A; trastuzumab:ADA 100:1 (trastuzumab [14]): 93.5%
Accuracy (%) Kit B (trastuzumab [15]): 101%
Accuracy (%) ELISA (trastuzumab [16]): 73.1%
Accuracy (%) Kit B (trastuzumab [17]): 11.7%
pKd (trastuzumab [18]): 9.40
Accuracy (%) Kit B (trastuzumab [19]): 3.93%
Accuracy (%) ELISA (trastuzumab [20]): 69.6%
Accuracy (%) ELISA (trastuzumab [21]): 75.4%
Accuracy (%) ELISA (trastuzumab [22]): 78.7%
Accuracy (%) ELISA (trastuzumab [23]): 75.2%
Accuracy (%) Kit B (trastuzumab [24]): 36.1%
Accuracy (%) ELISA (trastuzumab [25]): 72.1%
Accuracy (%) ELISA (trastuzumab [26]): 84.6%
Accuracy (%) ELISA (trastuzumab [27]): 98%
Accuracy (%) ELISA (trastuzumab [28]): 57.3%
Accuracy (%) ELISA (trastuzumab [29]): 116%
Accuracy (%) ELISA (trastuzumab [30]): 76.6%
Accuracy (%) ELISA (trastuzumab [31]): 82.6%
Substance: HCA176 (antibody)

Accuracy (%) nSMOL; bevacizumab 0.5 ug/mL; bevacizumab:ADA 1:1 (bevacizumab [1]): 95.5%
Accuracy (%) nSMOL; bevacizumab 0.5 ug/mL; bevacizumab:ADA 1:2 (bevacizumab [1]): 82.1%
Accuracy (%) nSMOL; bevacizumab 0.5 ug/mL; bevacizumab:ADA 1:5 (bevacizumab [1]): 54.8%
Accuracy (%) nSMOL; bevacizumab 0.5 ug/mL; bevacizumab:ADA 1:10 (bevacizumab [1]): 22.8%
Accuracy (%) nSMOL; bevacizumab 0.5 ug/mL; bevacizumab:ADA 1:50 (bevacizumab [1]): 22.9%
Accuracy (%) nSMOL; bevacizumab 0.5 ug/mL; bevacizumab:ADA 1:100 (bevacizumab [1]): 23.1%
Accuracy (%) nSMOL; bevacizumab 0.5 ug/mL; bevacizumab:ADA 5:1 (bevacizumab [1]): 105%
Accuracy (%) nSMOL; bevacizumab 0.5 ug/mL; bevacizumab:ADA 10:1 (bevacizumab [1]): 107%
Accuracy (%) nSMOL; bevacizumab 50 ug/mL; bevacizumab:ADA 1:1 (bevacizumab [1]): 75.7%
Accuracy (%) nSMOL; bevacizumab 50 ug/mL; bevacizumab:ADA 5:1 (bevacizumab [1]): 90.3%
Accuracy (%) nSMOL; bevacizumab 50 ug/mL; bevacizumab:ADA 10:1 (bevacizumab [1]): 95.8%
Accuracy (%) nSMOL; bevacizumab 50 ug/mL; bevacizumab:ADA 100:1 (bevacizumab [1]): 100%
Accuracy (%) nSMOL; bevacizumab first immobilized on Protein A; bevacizumab:ADA 1:1 (bevacizumab [1]): 58.9%
Accuracy (%) nSMOL; bevacizumab first immobilized on Protein A; bevacizumab:ADA 5:1 (bevacizumab [1]): 90%
Accuracy (%) nSMOL; bevacizumab first immobilized on Protein A; bevacizumab:ADA 10:1 (bevacizumab [1]): 106%
Accuracy (%) nSMOL; bevacizumab first immobilized on Protein A; bevacizumab:ADA 100:1 (bevacizumab [1]): 105%
inhibitory effect on quantification values (nSMOL), ratio 1:1 (bevacizumab [1]): 50%
Accuracy (%) ELISA (bevacizumab [2]): 84.1%
Accuracy (%) ELISA (bevacizumab [3]): 86.6%
Accuracy (%) ELISA (bevacizumab [4]): 55.8%
pKd (bevacizumab [32]): 9.40
Accuracy (%) ELISA (bevacizumab [5]): 35.2%
Accuracy (%) ELISA (bevacizumab [6]): 39.6%
Accuracy (%) ELISA (bevacizumab [7]): 38.9%
Accuracy (%) ELISA (bevacizumab [8]): 73.5%
Accuracy (%) ELISA (bevacizumab [9]): 95.6%
Accuracy (%) ELISA (bevacizumab [10]): 76.2%
Accuracy (%) ELISA (bevacizumab [11]): 37.2%
Accuracy (%) ELISA (bevacizumab [12]): 104%
Accuracy (%) ELISA (bevacizumab [13]): 76.8%
Substance: HCA185 (antibody)
